Results reported in publication PMC3269379, “The Host-Pathogen interaction of human cyclophilin A and HIV-1 Vpr requires specific N-terminal and novel C-terminal domains” (BMC Structural Biology, 2011).
Read-outs that look alike come from different tables or passages of the source.

Target: human cyclophilin A (human) (UniProt P62937)
Experiment: SPR

Chain of human cyclophilin A (human) (P62937 whole entry): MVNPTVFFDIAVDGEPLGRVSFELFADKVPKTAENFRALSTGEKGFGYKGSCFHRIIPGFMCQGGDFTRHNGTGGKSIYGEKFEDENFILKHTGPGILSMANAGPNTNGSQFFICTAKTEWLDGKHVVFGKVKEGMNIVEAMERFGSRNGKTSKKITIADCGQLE
Chain of HIV-1 capsid (CA) (O93182 133-363): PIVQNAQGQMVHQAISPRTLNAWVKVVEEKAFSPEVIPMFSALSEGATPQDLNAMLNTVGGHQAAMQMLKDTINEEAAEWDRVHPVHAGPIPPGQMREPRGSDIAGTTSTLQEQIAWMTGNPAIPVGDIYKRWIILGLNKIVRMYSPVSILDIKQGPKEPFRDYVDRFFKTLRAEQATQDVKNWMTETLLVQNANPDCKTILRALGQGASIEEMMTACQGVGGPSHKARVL

## Vpr^75-90 (R76Q, V83I, R80A, T84I) (peptide)
  Kd: 2.7 µM
  koff: 0.095 s⁻¹
  kon: 42000 M⁻¹ s⁻¹

## Vpr^75-90 (R76Q, V83I, T84I) (peptide)
  Kd: 4.7 µM
  koff: 0.071 s⁻¹
  kon: 16000 M⁻¹ s⁻¹

## HIV-1 capsid (CA) (from UniProt O93182)
Cited from earlier work
  Kd: 16 µM
